Measured values: patent US20170291930

What was measured:
[1] = test system: T1, Hst-5 synthetic peptide K17L
T1 sequence: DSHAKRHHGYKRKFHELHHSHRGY

[2] = test system: T2, Hst-5 synthetic peptide K17R
T2 sequence: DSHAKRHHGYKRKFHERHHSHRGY

[3] = test system: T3, Hst-5 synthetic peptide K13L
T3 sequence: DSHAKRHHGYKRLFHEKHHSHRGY

## purified recombinant Sap9 (C. albicans secreted aspartic protease 9)
[1]
  cleavage at the C-terminal side of residue 17 by Sap9 (mass spectrometry): while the parent Hst-5 was cleaved on the C-terminal side of K17, neither K17R nor K17L showed significant cleavage at this site
[2]
  cleavage at the C-terminal side of residue 17 by Sap9 (mass spectrometry): while the parent Hst-5 was cleaved on the C-terminal side of K17, neither K17R nor K17L showed significant cleavage at this site
[3]
  cleavage site preference of Sap9 (mass spectrometry): K13L showed an apparent shift in cleavage site preference compared to the parent Hst-5. The fragments containing amino acids 1-12 and 13-24 had higher signals for K13L than the fragments containing amino acids 1-17 and 18-24
